# Assay results reported in patent US20110166062A1 (INDIANA UNIVERSITY RESEARCH AND TECHNOLOGY, published 2011).
# *1 amine or outer side, *2 acyl side, *3 side chain or, on linkers, in order; H or OH if unused. Where no end group is shown, it is not given here. Side-chain parts run from the residue outwards. [ ]: non-standard residue; d: D form. The star is where a group is joined. γGlu = O=C(O)[C@H](CCC(=O)[*:2])N[*:1]; Palmitoyl = CCCCCCCCCCCCCCCC(=O)*; Aib = CC(C)(N)C(=O)O
# T1: GIP receptor (UniProt P48546 22-466)
# T1 sequence (looked up): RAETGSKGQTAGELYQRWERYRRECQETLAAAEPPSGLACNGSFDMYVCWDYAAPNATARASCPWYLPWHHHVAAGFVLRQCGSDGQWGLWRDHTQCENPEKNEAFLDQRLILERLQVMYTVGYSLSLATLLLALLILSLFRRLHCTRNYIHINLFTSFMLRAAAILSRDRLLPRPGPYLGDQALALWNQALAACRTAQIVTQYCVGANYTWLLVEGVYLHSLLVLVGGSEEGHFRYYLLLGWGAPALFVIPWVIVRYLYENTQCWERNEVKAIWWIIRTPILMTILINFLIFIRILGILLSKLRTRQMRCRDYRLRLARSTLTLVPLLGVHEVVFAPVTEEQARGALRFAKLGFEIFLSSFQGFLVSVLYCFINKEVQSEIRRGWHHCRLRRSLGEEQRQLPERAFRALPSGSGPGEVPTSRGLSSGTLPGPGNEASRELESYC
# B1: mt-369 (peptide)
# peptide: Y[Aib]EGTFTSDK([γGlu-γGlu-Palmitoyl])SIYLDKQAA[Aib]EFVNWLLAGGPSSGAPPPSK-NH2
# modifications: N-terminus assumed
# SMILES: CCCCCCCCCCCCCCCC(=O)N[C@@H](CCC(=O)N[C@@H](CCC(=O)NCCCC[C@H](NC(=O)[C@H](CC(=O)O)NC(=O)[C@H](CO)NC(=O)[C@@H](NC(=O)[C@H](Cc1ccccc1)NC(=O)[C@@H](NC(=O)CNC(=O)[C@H](CCC(=O)O)NC(=O)C(C)(C)NC(=O)[C@@H](N)Cc1ccc(O)cc1)[C@@H](C)O)[C@@H](C)O)C(=O)N[C@@H](CO)C(=O)N[C@H](C(=O)N[C@@H](Cc1ccc(O)cc1)C(=O)N[C@@H](CC(C)C)C(=O)N[C@@H](CC(=O)O)C(=O)N[C@@H](CCCCN)C(=O)N[C@@H](CCC(N)=O)C(=O)N[C@@H](C)C(=O)N[C@@H](C)C(=O)NC(C)(C)C(=O)N[C@@H](CCC(=O)O)C(=O)N[C@@H](Cc1ccccc1)C(=O)N[C@H](C(=O)N[C@@H](CC(N)=O)C(=O)N[C@@H](Cc1c[nH]c2ccccc12)C(=O)N[C@@H](CC(C)C)C(=O)N[C@@H](CC(C)C)C(=O)N[C@@H](C)C(=O)NCC(=O)NCC(=O)N1CCC[C@H]1C(=O)N[C@@H](CO)C(=O)N[C@@H](CO)C(=O)NCC(=O)N[C@@H](C)C(=O)N1CCC[C@H]1C(=O)N1CCC[C@H]1C(=O)N1CCC[C@H]1C(=O)N[C@@H](CO)C(=O)N[C@@H](CCCCN)C(N)=O)C(C)C)[C@@H](C)CC)C(=O)O)C(=O)O
# Tests used:
# Experiment in all cases: cell-based or functional assay
# glucagon receptor [1] = target: T2, glucagon receptor (UniProt P47871 26-477, limits assumed)
# GIP receptor [2] = target: T1, GIP receptor
# GLP-1 receptor [3] = target: T3, GLP-1 receptor (UniProt P43220 24-463, limits assumed)
# glucagon receptor [4] = target: T2, glucagon receptor; remark: listed apart in the source
# GIP receptor [5] = target: T1, GIP receptor; remark: listed apart in the source
# GLP-1 receptor [6] = target: T3, GLP-1 receptor; remark: listed apart in the source
# T2 sequence (P47871 26-477 limits assumed): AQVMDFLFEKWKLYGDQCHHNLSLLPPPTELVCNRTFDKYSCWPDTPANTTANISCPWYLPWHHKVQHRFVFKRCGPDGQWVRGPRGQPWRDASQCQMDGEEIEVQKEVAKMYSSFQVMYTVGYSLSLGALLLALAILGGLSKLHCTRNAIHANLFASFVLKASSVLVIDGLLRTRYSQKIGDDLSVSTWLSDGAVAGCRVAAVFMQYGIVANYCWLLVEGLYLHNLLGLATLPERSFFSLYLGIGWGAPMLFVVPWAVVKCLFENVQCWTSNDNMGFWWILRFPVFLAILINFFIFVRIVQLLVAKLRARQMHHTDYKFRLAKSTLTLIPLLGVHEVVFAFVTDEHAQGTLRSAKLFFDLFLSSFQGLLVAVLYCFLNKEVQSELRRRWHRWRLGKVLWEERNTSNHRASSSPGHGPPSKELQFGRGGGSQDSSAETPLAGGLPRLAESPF
binder,measurement,setting,value
B1,% Relative activity at the Receptor for Glucagon,glucagon receptor [1],1.54%
same,% Relative activity at the Receptor for GIP,GIP receptor [2],204%
same,% Relative activity at the Receptor for GLP-1,GLP-1 receptor [3],385%
same,"EC50, nM; Glucagon Receptor",glucagon receptor [4],2.19 nM
same,relative activity; Glucagon Receptor,glucagon receptor [4],1.54%
same,"EC50, nM; GIP Receptor",GIP receptor [5],0.0014 nM
same,relative activity; GIP Receptor,GIP receptor [5],204%
same,"EC50, nM; GLP-1 Receptor",GLP-1 receptor [6],0.0041 nM
same,relative activity; GLP-1 Receptor,GLP-1 receptor [6],385%
